Results: patent US20250250357A1 (NANJING ZAIMING PHARMACEUTICAL, published 2025)

T1: human MSLN-R1-his protein (human, UniProt Q13421 296-390)
T1 construct: Made in HEK293E cells, purified on nickel column; also called hMSLN-R1-his; human MSLN-R1 protein; not shown: His tag
T1 chain: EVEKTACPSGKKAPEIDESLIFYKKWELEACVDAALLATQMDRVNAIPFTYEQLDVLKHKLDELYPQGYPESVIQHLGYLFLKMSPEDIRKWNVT


Assays:
[1] = target: T2, human MSLN-FL-his protein (human, UniProt Q13421 296-580); experiment: ELISA, coated antigen, antibody 2 nM
T2 construct: Made in HEK293E cells, purified on nickel column; also called hMSLN-FL-his; human MSLN full-length protein; not shown: His tag

[2] = target: T1, human MSLN-R1-his protein; experiment: ELISA, coated antigen, antibody 2 nM
Procedure: (§1) The plate was sealed with a plastic film and incubated at 4° C. overnight. The next day, the plate was washed twice with PBST, and a blocking buffer [PBS+2% (w/w) BSA] was added for blocking at room temperature for 2 h. The blocking buffer was discarded, and a chimeric antibody or negative control antibody serially diluted from 100 nM was added at 50 μL/well. After incubation at 37° C. for 2 h, the plate was washed 3 times with PBST. […] After incubation at 37° C. for 2 h, the plate was washed 5 times with PBST. A TMB substrate was added at 50 μL/well for incubation at room temperature for 5-10 min, and then a stop solution (1.0 N HCl) was added at 50 μL/well.

[3] = target: T2, human MSLN-FL-his protein; experiment: ELISA, coated antigen, antibody 20 nM
Procedure: as §1

[4] = target: T1, human MSLN-R1-his protein; experiment: ELISA, coated antigen, antibody 20 nM
Procedure: as §1

[5] = target: T2, human MSLN-FL-his protein; experiment: ELISA, coated antigen, antibody 0.2 nM
Procedure: as §1

[6] = target: T2, human MSLN-FL-his protein; experiment: ELISA, coated antigen, antibody 200 nM
[7] = target: T1, human MSLN-R1-his protein; experiment: ELISA, coated antigen, antibody 0.2 nM
Procedure: as §1

[8] = target: T1, human MSLN-R1-his protein; experiment: ELISA, coated antigen, antibody 200 nM
Procedure: as §1

[9] = target: T2, human MSLN-FL-his protein; experiment: ELISA, coated antigen, antibody 0.02 nM
Procedure: as §1

[10] = target: T1, human MSLN-R1-his protein; experiment: ELISA, coated antigen, antibody 0.02 nM
Procedure: as §1

[11] = target: T2, human MSLN-FL-his protein; experiment: ELISA, coated antigen, antibody 0.002 nM
Procedure: as §1

[12] = target: T1, human MSLN-R1-his protein; experiment: ELISA, coated antigen, antibody 0.002 nM
Procedure: as §1

[13] = target: T2, human MSLN-FL-his protein; experiment: ELISA, coated antigen, antibody 0.0002 nM
Procedure: as §1

[14] = target: T1, human MSLN-R1-his protein; experiment: ELISA, coated antigen, antibody 0.0002 nM
Procedure: as §1

[15] = target: T2, human MSLN-FL-his protein; experiment: ELISA, coated antigen, no antibody (blank)
Procedure: as §1

[16] = target: T1, human MSLN-R1-his protein; experiment: ELISA, coated antigen, no antibody (blank)
Procedure: as §1

| Binder | OD450 [1] | OD450 [2] | OD450 [3] | OD450 [4] | OD450 [5] | OD450 [6] | OD450 [7] | OD450 [8] | OD450 [9] | OD450 [10] | OD450 [11] | OD450 [12] | OD450 [13] | OD450 [14] | OD450 [15] | OD450 [16] |
| --- | --- | --- | --- | --- | --- | --- | --- | --- | --- | --- | --- | --- | --- | --- | --- | --- |
| S009-F7.26.15 chimeric antibody (antibody, human IgG1, kappa, V domains shown, Human-murine chimeric antibody, human IgG1/kappa constant regions) VH: DVQLQESGPGLVKPSQTVFLTCTVTGISITTGNYRWSWIRQFPGNKLEWIGYIYYTGFITYNPSLTSRTTITRDTPKNQFFLEMKSLTAEDTATYYCARDDYDYDVFAYWGQGTLVTVSA VL: DIQMTQSPASLSASVGETVTITCRASGNIHNYLAWYHQKQGKSPQFLVYKAKTLADGVPSRFSGSGSGTQYSLKINRLQPEDFGSYYCQHFLSIPLTFGAGTKLELKR | 2.43 | 0.05 | 2.52 | 0.06 | 2.33 | 2.39 | 0.05 | 0.12 | 1.76 | 0.05 | 0.91 | 0.05 | 0.25 | 0.04 | 0.06 | 0.06 |
| S009-F7.44.20 chimeric antibody (antibody, human IgG1, kappa, V domains shown, Human-murine chimeric antibody, human IgG1/kappa constant regions) VH: EVQLQQSGPELVKPGASVKIPCKASGYTFTDYNMDWVKQSHGKSLEWIGDINPSTGGTIYNQKFNGKATLTEDKSASTVYMEFRSLTSDDTAVYYCARRRIGTGYFDVWGTGTTVTVSS VL: QIVLTQSPALMSASPGEKVTLTCSASSSVISSYLSWYQQKPGSSPKLLIYRTSNLASGVPARFSGSGSGTSYSLTISSMEAEDAASYFCHQWSSFPYTFGGGTKLEIKR | 2.24 | 0.04 | 2.21 | 0.05 | 2.26 | 2.36 | 0.04 | 0.07 | 1.82 | 0.04 | 0.93 | 0.04 | 0.26 | 0.04 | 0.06 | 0.06 |
| S009-F7.23.19 chimeric antibody (antibody, human IgG1, kappa, V domains shown, Human-murine chimeric antibody, human IgG1/kappa constant regions) VH: EVKLVESGGGLVQPGGSLSLSCAASGFTFTDYYMSWVRQPPGKALEWLGFIRSKANAYTTEYSASVKGRFTISRDNSQSILYLQMNDLRAEDSATYYCARYYYYGSGYVWYFDVWGTGTTVTVSS VL: DIVMTQSQKFMSTSVGDRVSVTCKASQSVGTNVAWYQQKPGQFPKALIYSASYRYSGVPDRFTGSGSGTDFTLTIINVQSEDLAEYFCQQYNSYPLTFGAGTKLELKR | 2.4 | 0.05 | 2.46 | 0.05 | 2.22 | 2.5 | 0.05 | 0.08 | 1.32 | 0.05 | 0.41 | 0.05 | 0.11 | 0.05 | 0.06 | 0.06 |
| S009-F7.30.5 chimeric antibody (antibody, human IgG1, kappa, V domains shown, Human-murine chimeric antibody, human IgG1/kappa constant regions) VH: QVQLQQPKTELVKPGASVKLSCKASGYIFTTYWMHWVKQRPGQGLEWIGNVNPSNGGTMYNEKFERRATLTVDKSSSTADMQLSSLTSEDSAVYYCVPHYIGSRPGFAYWGQGTLVTVSG VL: DIVMTQSQKFMSTSVGDRVSVTCKASQNVGTNVAWYQHKPGQSPKALLYSASYRYSGVPDRFTGSGSGTDFTLTITNVQSEDLAEYFCQQYNSYPLTFGGGTKLEIKR | 2.41 | 0.06 | 2.43 | 0.1 | 2.39 | 2.36 | 0.05 | 0.32 | 1.77 | 0.05 | 0.96 | 0.05 | 0.36 | 0.05 | 0.06 | 0.06 |
| S009-F7.33.24 chimeric antibody (antibody, human IgG1, kappa, V domains shown, Human-murine chimeric antibody, human IgG1/kappa constant regions) VH: QVQLQQPGTELVKPGASVKLSCKASGYTFTSYWMHWVKQRPGQGLEWIGNVNPSNGGSNYNEKFKNKATLTVDKSSSTADMQLNSLTSEDSAVYYCAPHYIGSRPGFAYWGQGTLVTVSG VL: DIVMTQSQKFMSTSVGDRVSVTCKASQNVGTNIAWYQQKPGQSPKALIYSASYRYSGVPDRFTGSGSGTDFTLTITNVQSEDLAEYFCQQYNSYPLTFGGGTKVEIKR | 2.54 | 0.06 | 2.53 | 0.08 | 2.6 | 2.48 | 0.05 | 0.15 | 2.01 | 0.06 | 1.06 | 0.06 | 0.26 | 0.06 | 0.06 | 0.06 |
| S009-F7.41.18 chimeric antibody (antibody, human IgG1, kappa, V domains shown, Human-murine chimeric antibody, human IgG1/kappa constant regions) VH: QVQLQQPGTELVKPGASVKLSCKASDYTFTSYWMHWVKQRPGQGLEWIGSINPSNGDTYYNEKFKNKATLTVDKSSSTAYMQLSSLTSDDSAVYYCARGWYFDVWGTGTTVTVSS VL: not shown | 2.26 | 0.06 | 2.24 | 0.07 | 2.04 | 2.3 | 0.06 | 0.09 | 1 | 0.05 | 0.25 | 0.06 | 0.08 | 0.06 | 0.06 | 0.06 |

The next lines start with the values.

| OD450 [1] | OD450 [2] | OD450 [3] | OD450 [4] | OD450 [5] | OD450 [6] | OD450 [7] | OD450 [8] | OD450 [9] | OD450 [10] | OD450 [11] | OD450 [12] | OD450 [13] | OD450 [14] | OD450 [15] | OD450 [16] | Binder |
| --- | --- | --- | --- | --- | --- | --- | --- | --- | --- | --- | --- | --- | --- | --- | --- | --- |
| 2.14 | 0.05 | 2.14 | 0.05 | 1.96 | 2.15 | 0.05 | 0.07 | 0.95 | 0.05 | 0.23 | 0.05 | 0.09 | 0.05 | 0.06 | 0.07 | S009-F7.61.21 chimeric antibody (antibody, human IgG1, kappa, V domains shown, Human-murine chimeric antibody, human IgG1/kappa constant regions) VH: DVQLQQSGPELVEPGASVRIPCKAAGHTFTDYNVDWVKQSHGQSLEWIGDVNPNTDGAIYNQKFEGKATLTVDTSSSTAYMELRSLTSEDTAVYFCARRRLGQGGFDSWGQGTTLTVSS VL: QVVLTQSPAIMSASPGEKVTLTCGASSSLISKYLYWYQQKPGSSPKLWIYSTSNLASGVPARFSGSGSGTSYSLTISSMEAEDAASYFCHQWSSYPYTFGGGTKVEIKR |
| 2.12 | 0.04 | 2.21 | 0.05 | 1.87 | 2.62 | 0.04 | 0.07 | 0.86 | 0.04 | 0.24 | 0.04 | 0.09 | 0.04 | 0.06 | 0.06 | S009-F7.48.1 chimeric antibody (antibody, human IgG1, kappa, V domains shown, Human-murine chimeric antibody, human IgG1/kappa constant regions) VH: QVQLQQPGTELVKPGASVKLSCKASGYTFTSYWMHWVKQRPGQGLEWIGNINPSNGGTNNNENFKSKATLTVDTSSSTAYMQLSSLTSEDSAVYYCVRNGYHGYWYFDVWGTGTTVTVSS VL: DIVMTQSQKFMSTSVGDRVSVTCKASQNVGTNVAWYQQQPGQSPKALIYSASYRYSGVPDRFTGSVSGTDFTLTISNVQSEDLAEYFCQQYNSYPLTFGGGTKLEIKR |
| 2.1 | 0.05 | 2.2 | 0.05 | 1.53 | 2.6 | 0.04 | 0.07 | 0.47 | 0.04 | 0.12 | 0.05 | 0.06 | 0.05 | 0.06 | 0.06 | S009-F7.53.2 chimeric antibody (antibody, human IgG1, kappa, V domains shown, Human-murine chimeric antibody, human IgG1/kappa constant regions) VH: EVQLQQSGPELVKPGASVKIPCKTSGYTFTDYNMDWVKQSHGKSLEWIGDINPNTDGAIYNQKFQNKATLTVDKSSSTAYMELRSLTSEDTAVYYCTRRKLGRKFFDYWGQGTTLTVSS VL: QIVLTQSPAIMSASPGEQVTMTCSASSSVGYMNWYQQKPGSSPRLLIYDTSNLASGVPVHFSGSGSGTSYSLTISRMEAAFAATYYCQQWYVYPYTFGGGTKLEIKR |
